B1: KCNK9 (parent)
chain: DVPDLQSVCSCTCYRSQDYGGRSV
B2: UFD1L (parent)
chain: EAGGRFVAFSGEGQSLRKKGRKP

Variants of: B1
Assay: protein stability index of a GFP-peptide fusion (GPS, HEK-293T) (PSI 1-6); higher = more stable
Settings: c terminus: a fixed tail appended
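Also: lentivirally expressed fusions sorted by FACS into six bins by GFP to DsRed ratio, PSI derived from sequencing read proportions per bin multiplied by bin number.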

Protein stability index: each site, then its substitutions
V2: S 2.19; I 1.78; N 2.7; A 1.84; T 2.57; H 1.67; M 2.31; D 1.78; K 2.43; Q 1.59; Y 1.82; W 1.68; E 2.93; G 1.5; F 1.69; C 2.07; P 1.55; R 2.2
L5: G 1.65; K 1.9; V 2.4; N 2.19; S 1.41; T 2.12; P 2.64; C 1.83; R 1.77; W 1.71; A 1.63; H 1.82; I 2.54; Q 2.38; M 1.79; E 3.6; F 2.15; Y 1.71; D 2.42
S7: E 1.81; C 1.66; Q 2.29; V 1.56; P 1.46; F 2.32; K 1.96; G 1.81; R 1.57; A 1.64; W 2.48; D 2.2; Y 2.07; T 2.03; N 1.38; I 2.29; M 1.84; H 1.92
D4: F 1.4; L 1.75; K 2.17; G 1.45; N 2.07; I 2.81; E 2.06; C 1.64; S 1.86; M 2.28; T 2.48; Q 3.18; P 2.05; Y 2.86
D1: M 1.54; P 2.33; S 2.29; N 1.29; H 3.67; L 2.59; A 1.54; V 1.51; G 1.26; T 1.86; Q 2.87; C 1.04; I 1.33; R 1.62; E 1.44; K 2.23
V8: F 2.22; E 2.24; H 1.57; G 3.36; D 2.8; A 2.8
P3: Y 1.4; K 1.12; H 1.8; E 2; A 1.34; Q 1.93; S 1.99; I 2.22; C 2.14; D 1.36; N 1.45; M 2.11; W 1.33; T 1.73; G 1.41
Q6: C 2.56; D 2.27; R 2.73; V 1.97; K 1.98; T 1.85; M 2.61; Y 4.08; G 1.63; I 2.39; P 1.5; H 1.88; W 2.57; N 1.82; E 1.3; A 1.65; L 3.01; S 1.59

Variants of: B2
Assay: as above
Settings: c terminus: native

Protein stability index of substitutions, site by site:
G3: W 1.67; C 1.6; Q 2.16; E 2.71; N 1.63; D 1.88; L 3.08; S 1.82; T 2.14; M 2.11; P 1.24
K18: R 1.48; H 1.24; E 1.49; T 1.97; C 2.11; F 2.3; V 1.39; D 2.01; Q 1.87; I 3.76
S15: G 2.42; H 2.1; D 1.87; P 2.16; Y 2.91; L 2.95; V 1.72; R 2.45; T 1.84; A 2.2
E12: T 3.41; K 1.69
R17: L 2.18; H 2.2; D 3; M 2.25; T 2.03; G 2.95; N 3.46; C 1.48; K 2.88; S 2.73
S10: T 1.77; P 2.83; N 2.98; K 1.4; A 1.38; D 2.36; Q 3.48; I 1.72
G4: D 2.5; Q 1.92; H 2.12; K 2.58; T 1.5; L 1.25; S 3.12; N 1
R21: S 2.83; G 5.2; K 5; V 4.06; Q 5.19; L 2.88; P 4.98; A 4.78; N 5.27; T 4.35; Y 4.7; I 3.99; M 4.38; C 3.45
F9: K 1.75; I 1.19; E 4.02; P 3.64; H 1; A 3.29; V 2.02; T 2.28; R 3.73; W 2.96; Q 2.25
G13: T 1.23; A 2.22; K 2.03; V 2.38; P 2.73; I 1.28; Q 1.16; S 1.9; N 1.55; R 1.35; L 2.52
A8: H 1.34; Q 2.18; N 1.41; T 1.77; F 2.8; I 1.11; L 1.5
L16: W 1.03; R 2.64; Y 2.51; M 1.65; P 1.18; V 2.98; N 2.61; D 3.34; T 2.18; C 2.79; S 3.42; Q 2.72; E 2.53
P23: I 3.95; S 3.2; L 3.73; W 5.5; Q 4.65; M 2.85; N 2.62; Y 3.01; V 4.09; K 4.87; C 3.15
G20: N 1.82; K 4.63; W 1.81; L 2.04; Q 3.83; V 2.53; S 2.12; A 3.91; E 2.78; D 2.12; H 3.25; P 4.77; M 1.57
Q14: D 1.26; C 3.07; R 2.51; G 2.12; A 1.83; E 1.58; S 2.5; N 2.02; F 2.93; V 2.4
K22: F 2.77; I 2.43; T 1.45; N 2.93; D 2; G 2.15
F6: G 2.2; A 3.06; K 2.25; D 4.59; M 1.81; Q 2.17; Y 2.38; P 3.15; S 2.41; T 4.93; H 1.75
K19: G 3.02; T 3.08; C 2.4; Q 2.05; E 1.58; P 1.07; A 3.83; R 1.68; D 1.74
G11: L 1.85; C 2.52; S 1.54; P 2.21; A 1.26; N 1.82
A2: Y 2.35; T 1.64
V7: A 2.69; I 1.9; E 2.91; Y 1.12; L 1.5; F 1.9; D 3.75; H 1.37; S 1.72; T 1.18; N 2.18; C 2.03; G 1.39
R5: Y 1.48; F 2.14; S 3.17; N 2.6; P 3.69; E 3.18; I 1.48; T 3.2; M 1.85; Q 3.3; K 2.01; L 2.46; D 4.49; A 3.01

Reference: the supplement of paper PMC10567573
